This is an account of results in IntAct's records for PubMed 12134079.

To fix the notation:
B1: "Bis(monoacylglycero)phosphate synthase CLN5" (Homo sapiens), O75503 (parent)
chain: MAQEVDTAQGAEMRRGAGAARGRASWCWALALLWLAVVPGWSRVSGIPSRRHWPVPYKRFDFRPKPDPYCQAKYTFCPTGSPIPVMEGDDDIEVFRLQAPVWEFKYGDLLGHLKIMHDAIGFRSTLTGKNYTMEWYELFQLGNCTFPHLRPEMDAPFWCNQGAACFFEGIDDVHWKENGTLVQVATISGNMFNQMAKWVKQDNETGIYYETWNVKASPEKGAETWFDSYDCSKFVLRTFNKLAEFGAEFKNIETNYTRIFLYSGEPTYLGNETSVFGPTGNKTLGLAIKRFYYPFKPHLPTKEFLLSLLQIFDAVIVHKQFYLFYNFEYWFLPMKFPFIKITYEEIPLPIRNKTLSGL
partner: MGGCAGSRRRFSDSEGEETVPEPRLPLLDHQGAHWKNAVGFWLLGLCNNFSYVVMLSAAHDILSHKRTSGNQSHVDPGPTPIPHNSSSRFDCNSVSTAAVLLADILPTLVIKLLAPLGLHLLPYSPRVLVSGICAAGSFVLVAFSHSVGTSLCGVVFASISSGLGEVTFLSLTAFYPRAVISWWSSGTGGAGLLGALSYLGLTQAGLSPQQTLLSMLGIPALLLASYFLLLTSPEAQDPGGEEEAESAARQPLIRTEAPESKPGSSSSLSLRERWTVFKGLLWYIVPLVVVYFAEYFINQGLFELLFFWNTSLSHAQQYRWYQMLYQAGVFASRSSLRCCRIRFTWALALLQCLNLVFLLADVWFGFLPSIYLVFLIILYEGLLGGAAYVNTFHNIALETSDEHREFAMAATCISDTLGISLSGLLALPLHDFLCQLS

The variants in this test derive from B1. Particulars: with cln3_human CLN3, Q13286.
Consider MAQEVDTAQGAEMRRGAGAARGRASWCWALALLWLAVVPGWSRVSGIPSRRHWPVPYKRFDFRPKPDPYCQAKYTFCPTGSPIPVMEGDDDIEVFRLQAPVWEFKYGDLLGHLKIMHDAIGFRSTLTGKNYTMEWYELFQLGNCTFPHLRPEMDAPFWCNQGAACFFEGIDDVHWKENGTLVQVATISGNMFNQMAKWVKQDNETGIYYETWNVKASPEKGAETWFDSYNCSKFVLRTFNKLAEFGAEFKNIETNYTRIFLYSGEPTYLGNETSVFGPTGNKTLGLAIKRFYYPFKPHLPTKEFLLSLLQIFDAVIVHKQFYLFYNFEYWFLPMKFPFIKITYEEIPLPIRNKTLSGL [D230N], for which the “effect of a mutation on the interaction” value is “with no effect”.
